Positions count from the first letter of the chain named.
B1: F1.2.14 human-murine chimeric antibody (antibody, human IgG1, kappa, V domains shown)
VH: RVQLQQSGAELVKPGASVRMSCKASGYTFTAYSIEWMKQNLGKSLEWIGNFRPYNDDTKYNENFKGRATLTVEKSSATVYLELSRLTSDDSAVYYCARSGPTDYFDYWGQGTTLIVSS
VL: DIQMTQSPASLSASVGETVTITCRASDNIYSYLAWYQQKQGQSPQLLVYNAKTLAEGVPSRFSGSGSVTQFSLKIISLQPEDFGTYYCQHHFGTPRTFGGGTKLEIKR
B2: F1.21.8 human-murine chimeric antibody (antibody, human IgG1, kappa, V domains shown)
VH: EVQLQQSGPELVKPGASVKISCKTSGFLFTGHYMHWVKSSHGNILDWIGYIYPYNAISFYNQKFKGKATLTVDKSSNTAYMELRSLTSEDSAVYYCARGDYGNYVTAYWGQGTLVTVSA
VL: DVLMTQTPLSLPVSLGDQASISCRSSQSIVHSSGNTYLEWYLQKPGQSPKLLIYKVSNRFSGVPDRFSGSGSGTDFTLKISRVEAEDLGVYYCFQGSHLPWTFGGGTKLDIKR
B3: F1.41.17 human-murine chimeric antibody (antibody, human IgG1, kappa, V domains shown)
VH: EVQLVESGGDSVKPGGSLKLSCAASGFTFSSYGMSWVRQTPDKRLEWVATINSGGSYTYYQDSVKGRFTISRDNAKNTLYLQMSSLKSEDTAIYYCVRHHYGSSYDYFDYWGQGTTLTVSS
VL: DIVMTQAAPSVPVMPGESVSISCRSSKSLLHSNGNTHLYWFLQRPGQSPQLLIYRMSNLASGVPDRFSGSGSGTAFTLRISRVEAEDVGVYYCMQHLEYPLTFGAGTKLELKR
B4: F1.42.8 human-murine chimeric antibody (antibody, human IgG1, kappa, V domains shown)
VH: HVQLQQPGAELVKPGASVKLSCKASGYTFTSYWMHWVRQRPGQGLEWIEMIHPNSGSTNYNEKFKSKATLTVDKSSSTAYMQLSSLTSEDSAVYYCARGNYNSSLYAMDYWGQGTSVTVSS
VL: DIQMTQTTSSLSASLGDRVTISCSASQGISNYLNWYQQKPDGTVKLLIYYASNLHSGVPSRFSGSGSGTAYSLTISNLEPEDIATYYCQQYSILPYTFGGGTKLEIKR
B5: F1.57.21 human-murine chimeric antibody (antibody, human IgG1, kappa, V domains shown)
VH: QVQLQQSGAELARPGASVKLSCKASGYTFTSYGISWVKQITGQGLEWIGEIYPRSESTYYNEKFKGKATLTADKSSSTAYMELRSLTSEDSAVYFCARDYGNIYSFAYWGQGTLVTVSA
VL: B1 VL with A25T, D27E, Q42K, V68G, I76N, T85S, F92Y, R96L, G100A, I106L
B6: F1.73.9 human-murine chimeric antibody (antibody, human IgG1, kappa, V domains shown)
VH: QVQLKQSGAELVRPGASVKLSCKASGYTFTDYYINWVKQRPGQGLEWIARIYPGSGNTYYNEKFKGKATLTAEKSSSTAYMQFSSLTSEDSAVYFCACSTYYTMDYWGQGTSVTVSS
VL: QIVLTQSPAIMSASLGERVTMTCTASSGVSSSYLHWYQQKPGSSPKLWIYTTSNLASGVPARFSGSGSGTSYSLTISSMEAEDAATYYCHQYHRSPYTFGGGTKLEIKR
B7: F1.78.24 human-murine chimeric antibody (antibody, human IgG1, kappa, V domains shown)
VH: QVQLQQSGAELVKPGASVKMSCKASGYTFTTYPIEWMKQNHGKSLEWIGNFHPYNDDTNYNVKFKGKATLTVEKSSSTVYLELSRLTSDDSALYYCARRREYYGSFDVWGTGTTVTVSS
VL: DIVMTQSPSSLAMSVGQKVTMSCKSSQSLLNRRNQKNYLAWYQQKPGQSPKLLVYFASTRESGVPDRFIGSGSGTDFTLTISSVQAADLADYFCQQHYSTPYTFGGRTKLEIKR
B8: F1.83.6 human-murine chimeric antibody (antibody, human IgG1, kappa, V domains shown)
VH: QVQLQQSGPELVKPGASVKISCKASGYAFSSSWMNWVKQRPGKGLEWIGRIYPGDGDTNYNGRFKGKATLTVDKSSSTAYMQLSSLTSEDSAVYFCARGGVFTMALDHWGQGTTLTVSS
VL: DIQMTQSPSSLSASLGGKVTITCKASQDINKYIAWYQHKPGKGPRLLIHYTSTLQPGIPSRFSGSGSGRDYSFSISNLEPEDIATYYCLQYDNLFTFGGGTKLEIKR
B9: F1.92.17 human-murine chimeric antibody (antibody, human IgG1, kappa, V domains shown)
VH: EVQLQQSGPELVKPGASVKMSCKASGYTFTDYNMHWVRQSHGKSLEWIGYINPNNGDTIYNQNFKGKATLTVNKSSSTAYMELRSLTSEDSAVYYCSRTITYYYSMDYWGPGTSVTVSS
VL: QIVLTQSPALMSASPGEKVTMTCSASSSVSYMYWYQQKPRSSPKPWIYLTSNLASGVPARFSGSGSGTSYSLTISSMEAEDAATYYCQQWSSNPLTFGAGTKLELKR
B10: F1.110.24 human-murine chimeric antibody (antibody, human IgG1, kappa, V domains shown)
VH: EVKLVESGGGLVQPGGSLKLSCAASGFTFSDFYMYWVRQTPEKRLEWVAFISNGGGSTYYPDTVKGRFTISRDNVKNTLYLQMSRLKSEDTAMYYCARPDTSWFAYWGQGSLVTVSA
VL: DIQMTQTTSSLSASLGDRVTISCRASQDIDNYLNWYQQKPDGTVKVLISYTSRLHSGVPSRFSGSGSGTDYSLTISNLEQEDIATYFCQQGNTLPWTFGGGTKLEIKR
B11: hAb006LH3L1c (antibody, human IgG1, V domains shown)
VH: EVQLVQSGAEVKKPGSSVKVSCKASGYTFTDYEIHWVRQAPGQGLEWMGAIDPKTGNTAYNQKFMGRVTLTADKSTSTAYMELSSLRSEDTAVYYCTRYFSFAYWGQGTLVTVSS
VL: DIVMTQTPLSLPVTPGEPASISCRSSQTFVHSNRNTYLQWYLQKPGQSPQLLIYKVSNRFSGVPDRFSGSGSGTDFTLKISRVEAEDVGVYYCFQGSHVPYTFGQGTKLEIK
notes: Humanized F3.38.7
B12: hAb007LH1L1 (antibody, human IgG1, V domains shown)
VH: B11 VH with T30S, I34M, A50T, K54E, M65K, L70I, Y99P, F100Y, F102L, A103T
VL: B11 VL with T28S, R34G, N35D
notes: Humanized F3.81.19
B13: hAb007LH1L1b (antibody, human IgG1, V domains shown)
VH: B11 VH with T30S, I34M, A50T, K54E, M65K, L70I, Y99P, F100Y, F102L, A103T
VL: B11 VL with T28S, N35D
notes: Humanized F3.81.19
B14: hAb007LH1L1c (antibody, human IgG1, V domains shown)
VH: B11 VH with T30S, I34M, A50T, K54E, M65K, L70I, Y99P, F100Y, F102L, A103T
VL: B11 VL with T28S, R34A, N35D
notes: Humanized F3.81.19
B15: hAb007LH2L1b (antibody, human IgG1, V domains shown)
VH: B11 VH with I34M, A50T, K54E, M65K, L70I, Y99P, F100Y, F102L, A103T
VL: B11 VL with T28S, N35D
notes: Humanized F3.81.19

Key:
[1] = biological target: T1, GPC3 endogenously expressed on HepG2 cells (UniProt P51654 25-554); assay: FACS on HepG2 cells;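 note: flow cytometric binding of chimeric antibodies to cells, read as mean fluorescence intensity, EC50 obtained by curve fitting of the MFI data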
T1 construct: whole, on cells
Description: (§1) The desired cells were expanded to a logarithmic growth phase in a T-75 cell culture flask, the medium was removed by pipetting, and the cells were washed twice with a PBS buffer, and digested with trypsin. Then a complete medium was added to stop the digestion, and the cells were blown into a single cell suspension. After counting, the cells were centrifuged, and the cell pellet was resuspended with an FACS buffer (PBS+2% fetal bovine serum) to 2×10⁶ cells/mL. The cell resuspension solution was added to a 96-well FACS reaction plate at 50 μl/well, and a chimeric antibody sample to be tested was added at 50 μl/well for incubation at 4° C. for 1 h. […] After the plate was centrifuged and washed 3 times with a PBS buffer, 100 μl of the resulting solution was assayed and analyzed by FACS (FACS Canto™, purchased from BD Biosciences). Data analysis was performed by software (FlowJo) to obtain the mean fluorescence intensity (MFI) of the cells. Then, analysis was performed by software (GraphPad Prism8), data were fitted, and EC₅₀ values were calculated.

[2] = biological target: T2, human GPC3 on CHO-K1-human GPC3 cells (clone CHOK1-hGPC3.2B5) (human, UniProt P51654 25-554); assay: FACS on CHOK1-hGPC3.2B5 cells;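 note: flow cytometry binding of chimeric antibodies to the cells, read out as mean fluorescence intensity, with the half-maximal concentration derived by curve fitting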
T2 construct: whole, on cells; Stably transfected CHO-K1 clone 2B5
Description: as §1

[3] = biological target: T3, human GPC3-His protein (human, UniProt P51654 25-559); assay: ELISA, coated human GPC3, antibody 1 nM;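 note: antigen coated at 1 µg/mL on 96-well plates, antibody bound for 2 h at 37 °C, detected with HRP-labeled secondary antibody and TMB, absorbance read at 450 nm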
T3 construct: Bought protein; also called human GPC3 protein; not shown: His tag

[4] = biological target: T3, human GPC3-His protein; assay: ELISA, coated human GPC3, antibody 10 nM;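 note: plate coated with antigen at 1 µg/mL, antibodies bound 2 h at 37 °C, detected via HRP-conjugated secondary antibody and TMB substrate, absorbance read after acid stop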
Description: (§2) The specific method is described as follows: The antigen protein was diluted with PBS to a final concentration of 1 μg/mL, and the diluent was added to a 96-well ELISA plate at 50 μL/well. The plate was sealed with a plastic film and incubated at 4° C. overnight, washed twice with PBS the next day, and a blocking solution [PBS+2% (w/w) BSA] was added for blocking at room temperature for 2 h. […] After incubation at 37° C. for 2 h, the plate was washed 3 times with PBS. A horseradish peroxidase (HRP)-labeled secondary antibody (purchased from Merck, Cat. No. AP113P) was added for incubation at 37° C. for 1 h, and the plate was washed 5 times with PBS. A TMB substrate was added at 50 μL/well for incubation at room temperature for 10 min, then a stop solution (1.0M HCl) was added at 50 μL/well. An ELISA plate reader (Multimode Plate Reader, EnSight, purchased from Perkin Elmer) was used to read OD_{450 nm} values, with results as shown in Table 4 to Table 6, FIG. 1A, FIG. 1B, and FIG. 1C.

[5] = biological target: T3, human GPC3-His protein; assay: ELISA, coated human GPC3, antibody 0.1 nM;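 note: antigen coated on 96-well plates at 1 µg/mL, antibody bound 2 h at 37 °C, detected with HRP-labeled secondary antibody and TMB substrate, acid-stopped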
Description: as §2

[6] = biological target: T3, human GPC3-His protein; assay: ELISA, coated human GPC3, antibody 100 nM;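 note: antibodies bound to antigen-coated 96-well plates (1 µg/mL), 2 h at 37 °C, detected with HRP-labelled secondary antibody and TMB substrate, absorbance read at 450 nm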
Description: as §2

[7] = biological target: T3, human GPC3-His protein; assay: ELISA, coated human GPC3, antibody 0.01 nM;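 note: Plate-bound antigen coated at 1 µg/mL, antibody incubated 2 h at 37 °C, binding detected by HRP-conjugated secondary antibody with TMB substrate, read as absorbance at 450 nm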
Description: as §2

[8] = biological target: T3, human GPC3-His protein; assay: ELISA, coated human GPC3, antibody 0.001 nM
[9] = biological target: T3, human GPC3-His protein; assay: ELISA, coated human GPC3, antibody 0.0001 nM
[10] = biological target: T4, monkey GPC3 on HEK293T-monkey GPC3 cells (monkey); assay: FACS on HEK293T-monkey GPC3 cells
T4 construct: whole, on cells

[11] = biological target: T5, human GPC3-His protein (human, UniProt P51654 25-559, limits assumed); assay: SPR, antibody captured on Protein A chip, human GPC3-His injected, 1:1 Langmuir model;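 note: flow cell at 25 °C, antigen injected for 240 s at five twofold dilutions starting at 200 nM, dissociation followed up to 600 s, double-referenced sensorgrams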
T5 construct: also called human GPC3 protein; not shown: His tag

Binder	EC50 [1] [nM]	Max MFI [1] [MFI]	EC50 [2] [nM]	Max MFI [2] [MFI]	OD450 nm [3] [OD450]	OD450 nm [4] [OD450]	OD450 nm [5] [OD450]	OD450 nm [6] [OD450]	OD450 nm [7] [OD450]	OD450 nm [8] [OD450]	OD450 nm [9] [OD450]	EC50 [10] [nM]	Max MFI [10] [MFI]	Kd [11] [nM]	koff [11] [s⁻¹]	kon [11] [M⁻¹ s⁻¹]
B1	2.13	1860	1.67	8280	1.24	1.47	0.61	1.84	0.17	0.1	0.08					
B2	0.36	2190	0.68	10700	1.71	1.7	0.9	2	0.25	0.12	0.08					
B3	0.2	1990	0.55	9930	1.68	1.59	0.97	1.51	0.24	0.11	0.08					
B4	0.21	2090	0.4	9420	2.02	2.31	1.22	2.56	0.3	0.13	0.1					
B5	0.71	1650	1.36	9360	1.5	2.02	0.8	2.35	0.21	0.11	0.08					
B6	0.25	1880	0.66	8850	1.33	1.74	0.86	1.46	0.23	0.11	0.09					
B7	0.31	2120	0.76	10400	0.72	1.07	0.66	0.45	0.19	0.12	0.09					
B8	0.87	2340	1.1	10100	0.83	1.19	0.4	0.76	0.17	0.1	0.08					
B9	2.9	2300	2.04	9600	0.68	1.19	0.25	0.66	0.11	0.09	0.08					
B10	0.83	2270	0.9	9370	0.77	1.18	0.42	0.62	0.13	0.09	0.08					
B11												4.06	91600	3.15	0.001	319000
B12												4.1	36300	1.05	0.000114	109000
B13												12.4	35400	2.21	0.000228	103000
B14												8.8	73600	4.28	0.000397	92700
B15												13.2	35800	3.58	0.000315	88000

— patent publication US20260116991A1 (HAINAN SIMCERE ZAIMING PHARMACEUTICAL, published 2026)
